Reference: patent US20240279335A1, “CD28 SHEDDING BLOCKING AGENTS” (BIOND BIOLOGICS LTD., priority 2021, published 2024)
Where a chain is given by its changes, count along the chain named. Where “and” joins values, the source holds several entries; their conditions need not be identical. Identical values can stand only once. Like-named read-outs stand apart in the source and are kept apart here.

B1: VHH 2A1 (VHH)
VHH: EVQLVESGGGLVQAGESLRLSCAASGSIASINAMGWYRQAPGSQRELVAAISGGGDTYYADSVKGRFTISRDNAKTTVYLQMNSLRPEDTAVYYCVVDLYGSDYWDWGQGTQVTVSS
notes: Monomeric llama VHH; also called VHH #2A01; monomeric 2A1
B2: VHH 5A3 (VHH)
VHH: B1 VHH with A33S, S52N, G53E, G54K, G55L, D56L, T57I
notes: also called 5A03
B3: VHH 9A7 (VHH)
VHH: EVQLVESGGGLVQAGESLRLSCAASGSIASINSMGWYRQAPGSQRELVAAISDRSEKYYADSVKGRFTISRDNAKTTVYLQMNSLRPEDTAVYYCVVDHHHSDWWTWGQGTQVTVSS
notes: also called 9A07
B4: VHH 9B3 (VHH)
VHH: EVQLVESGGGLVQAGESLRLSCAASGSIASIRTMAWYRQAPGSQRELVAAISSGREVYYADSVKGRFTISRDNAKTTVYLQMNSLRPEDTAVYYCVVDMYWQDYWWWGQGTQVTVSS
notes: also called 9B03
B5: VHH 11E11 (VHH)
VHH: B4 VHH with R32N, T33S, S53N, G54A, M99V, W101F, D103E, W106Y
B6: VHH 11G11 (VHH)
VHH: EVQLVESGGGLVQAGESLRLSCAASGSIASINTMAWYRQAPGSQRELVAAINSISRTYYADSVKGRFTISRDNAKTTVYLQMNSLRPEDTAVYYCVVDVTKEDYWYWGQGTQVTVSS
B7: VHH 10E1 (VHH)
VHH: B6 VHH with N32K, S53Y, S55K, R56E, T57I
notes: also called 10E01
B8: VHH 6B10: affinity matured variant of VHH 2A1, SEQ ID NO: 28 (protein)
VHH: B1 VHH with L99T, Y100H, G101R, S102G, D103V, D106Y
B9: 2A1-Hinge: VHH 2A1 with human IgG1 hinge region downstream, dimeric, SEQ ID NO: 114 (protein)
chain: EVQLVESGGGLVQAGESLRLSCAASGSIASINAMGWYRQAPGSQRELVAAISGGGDTYYADSVKGRFTISRDNAKTTVYLQMNSLRPEDTAVYYCVVDLYGSDYWDWGQGTQVTVSSDKTHTCPPCPAPEL
modifications: dimeric
B10: VHH 12A09: affinity matured variant of VHH 2A1, SEQ ID NO: 32 (protein)
VHH: B6 VHH with N32K, A49T, N52A, I54D, S55N, T57K

Key:
[1] = molecular target: human CD28 on the cell surface (membranal CD28) (human) (UniProt P10747); assay: flow cytometry on human CD3 cells, 300 nM, anti-human IgG VHH Alexa Fluor 647
[2] = molecular target: human CD28 on the cell surface (membranal CD28) (human) (UniProt P10747); assay: as above; remark: listed apart in the source
[3] = molecular target: T1, soluble CD28 (sCD28) from SEB stimulated PBMC (Homo sapiens, UniProt P10747); format: cell-based
T1 construct: PBMCs were isolated from fresh blood samples of healthy donors; endogenous in cells; host or cells: human PBMCs from healthy donors, SEB-stimulated

[4] = molecular target: T2, human CD28-Fc chimera (R&D, Cat. No. 342-CD) (human, UniProt P10747 19-152); assay: ELISA: serial dilution of the agent on recombinant human CD28-Fc fusion protein, OD read
T2 construct: Bought reagent; also called recombinant human CD28-Fc fusion protein; recombinant CD28 fused to an Fc backbone; Fc part of the bought chimera not given

[5] = molecular target: T2, human CD28-Fc chimera (R&D, Cat. No. …); assay: SPR (Biacore), CD28-Fc immobilized on CM5 chip, VHH as analyte, multi-cycle kinetics, 1:1 model
CD28-Fc = molecular target: T3, CD28-Fc (Homo sapiens, UniProt P10747); assay: Biacore multi-cycle kinetics on immobilized CD28-Fc; format: binding; conditions: Table 3, monomeric VHH clones; for ka: affinity constants to CD28-Fc
T3 construct: Fc
Procedure: Biacore—Affinity clones derived from VHH #2A01 affinity maturation libraries was determined using CD28-Fc immobilized on a CM5 Series S sensor chip. Multi-cycle kinetics measurements were done using 5 step dilutions of the analytes (VHH clones) from 200 nM down to 12.5 nM. Kinetic parameters and affinity values were calculated using the 1:1 binding model in Biacore T 200 E valuation software 3.1 by introducing a double (blank channel and blank sample) subtraction.

[6] = test system: isolated T cells mixed with mature dendritic cells; assay: Allogeneic mixed lymphocyte reaction (MLR), cytokine secretion; format: cell-based, human; conditions: monomeric affinity matured VHHs; especially at high concentrations; FIG. 2
Procedure: (§1) Cytokines ELISA—Commercial ELISA kits were used for quantitation of the amount of human interferon-gamma (Biolegend, Cat. No. 430103), human interleukin 2 (Biolegend, Cat. No. 431802) and human CD28 (R&D system, Cat. No. DY342). Cell Proliferation and viability (MTT assay) was conducted to assure validity of results and performed according to manufacturer instructions (Roche, Cat. No. 11465007001).
Dendritic cell differentiation—Monocytes were cultured at a density of 1×10^6/mL in RPMI medium with growth factors that was refreshed at day 3 and at day 6. […] When needed the iDCs were further differentiated into mature dendritic cells by addition of 100 ng/mL LPS (Sigma, Cat. No. L4391) and 20 ng/mL interferon-gamma (R&D systems, Cat. No. 285-IF) for 48 hrs. The generated cell populations were tested for the indicated phenotypes by FACS analysis of relevant markers and by analysis of secretion of characteristic cytokines.
Allogeneic Mixed Lymphocyte Reaction—0.1×10^6 T cells were mixed with […] dendritic cells from different donor for 24-96 hours at 37° C. with/without the indicated concentration of treatments. Assays were conducted in complete RPMI-1640 media supplemented with 10% FCS and pen/strep mixture. […]

isolated CD3 T cells = assay: T cell stimulation with HEK/CD80/scOKT3 artificial antigen presenting cells (aAPC-CD80), IL-2 secretion; format: cell-based, human; conditions: various concentrations, FIG. 13A-13F, 17A-17F
Procedure: as §1
T cells stimulation with HEK/CD80/scOKT3 artificial antigen presenting cells (aAPC-CD80)—1×10^5 isolated CD3 T cells (from healthy donors) were stimulated with 0.5×10^4 mitomycin treated aAPC-CD80 (HEK293 cells stably transfected with CD80 and scOKT3-CD14 chimera plasmids) for 24-72 hr at 37° C. Treatments of VHH targeting CD28 or controls were added at the indicated concentration in soluble form. When stated, VHH #3C04 (raised against human HER2) was used as an “irrelevant control” and VHH #12B09 was used as a “positive control” for a nanobody with CD28 antagonist effect. Assays were conducted in complete RPMI-1640 media supplemented with 10% FCS and pen/strep mixture.

| Molecule | Kd [5] | koff [5] [s⁻¹] | kon [5] [M⁻¹ s⁻¹] | kd (CD28-Fc; CD28-Fc) [s⁻¹] | ka (CD28-Fc) [M⁻¹ s⁻¹] | further results |
| --- | --- | --- | --- | --- | --- | --- |
| Isotype hIgG4 (antibody) | – | – | – | – | – | MFI [1]: 116 MFI; MFI [2]: 71.9 MFI |
| CC#CCOc1ccc(S(=O)(=O)N2CCSC(C)(C)[C@@H]2C(=O)NO)cc1 [TMI, reference compound] | – | – | – | – | – | sCD28 levels / inhibition of sCD28 production [3]: greatly reduced sCD28 levels |
| B1 | – | – | – | – | – | EC50 (read off the curve) [4]: ~40 nM |
| B2 | 1.12 nM | 3.78e-05 | 33800 | 3.78e-05 | 33800 | proinflammatory cytokine (IFN gamma) secretion in MLR, antagonistic effect [6]: robust antagonistic effect; blocking of CD28 shedding compared to the parental VHH [3]: superior to the parental VHH |
| B3 | 0.19 nM | 9.78e-06 | 51500 | 9.78e-06 | 51500 | – |
| B4 | 0.000642 nM | 7.17e-08 | 112000 | 7.17e-08 | 112000 | – |
| B5 | 0.352 nM | 1.64e-05 | 46600 | 1.64e-05 | 46600 | – |
| B6 | 0.12 nM and 0.121 nM | 5.77e-06 | 47800 | 5.77e-06 | 47800 | – |
| B7 | 0.0639 nM | 2.84e-06 | 44400 | 2.84e-06 | 44400 | – |
| B8 | – | – | – | – | – | proinflammatory cytokine (IFN gamma) secretion in MLR, antagonistic effect [6]: robust antagonistic effect; blocking of CD28 shedding compared to the parental VHH [3]: superior to the parental VHH |
| B9 | – | – | – | – | – | IL-2 secretion, antagonistic effect (isolated CD3 T cells): no effect on IL-2 secretion; sCD28 levels / inhibition of sCD28 production [3]: did inhibit sCD28 production, but only at levels that were comparable to the 2A1 monomer |
| B10 | – | – | – | 3.43e-07 | 83400 | Kd (CD28-Fc; CD28-Fc): 0.0041 nM |
